Data: patent US20120219559A1 (Johns Hopkins, published 2012)

Tests used:
Assay in all cases: CDS well image, 293T cells transfected with the human gene, stained with the human fusion protein
[1] = target: T1, human B7-2 (CD86, B70) expressed on 293T cells (human, UniProt P42081 24-329)
T1 construct: whole, on cells
T1 sequence (looked up): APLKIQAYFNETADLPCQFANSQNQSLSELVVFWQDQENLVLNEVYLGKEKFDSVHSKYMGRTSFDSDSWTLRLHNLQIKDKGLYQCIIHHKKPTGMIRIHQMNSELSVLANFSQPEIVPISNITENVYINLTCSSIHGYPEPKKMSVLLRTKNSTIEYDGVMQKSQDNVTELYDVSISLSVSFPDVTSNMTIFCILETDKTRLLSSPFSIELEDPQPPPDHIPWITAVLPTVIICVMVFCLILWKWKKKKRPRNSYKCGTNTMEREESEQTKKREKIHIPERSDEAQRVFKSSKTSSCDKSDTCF

[2] = target: T2, human CD28, full length, expressed on cells (CD28+293T cells) (human, UniProt P10747 19-220)
T2 construct: This id also stands for CD28 on purified human T cells in the functional rows; also called CD28+ cells

[3] = target: T3, human ICOS, full length, expressed on cells (ICOS+293T cells) (human, UniProt Q9Y6W8 21-199)
T3 construct: This id also stands for ICOS on human T cells in the functional rows
T3 sequence: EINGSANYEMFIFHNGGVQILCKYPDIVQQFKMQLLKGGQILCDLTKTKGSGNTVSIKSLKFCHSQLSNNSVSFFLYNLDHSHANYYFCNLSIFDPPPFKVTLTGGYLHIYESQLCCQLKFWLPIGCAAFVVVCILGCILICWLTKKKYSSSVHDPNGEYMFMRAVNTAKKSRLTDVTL

[4] = target: T4, human B7-1 (CD80) expressed on 293T cells (human, UniProt P33681 35-288)
T4 construct: whole, on cells
T4 sequence (looked up): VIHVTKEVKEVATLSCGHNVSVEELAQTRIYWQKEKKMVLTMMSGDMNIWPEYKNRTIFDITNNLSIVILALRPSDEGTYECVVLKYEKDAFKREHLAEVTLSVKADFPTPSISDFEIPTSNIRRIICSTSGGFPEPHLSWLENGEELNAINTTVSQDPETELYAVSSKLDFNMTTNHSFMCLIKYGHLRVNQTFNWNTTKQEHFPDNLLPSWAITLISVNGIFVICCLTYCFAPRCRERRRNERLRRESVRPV

Measured: binding result

T2 sequence (P10747 19-220): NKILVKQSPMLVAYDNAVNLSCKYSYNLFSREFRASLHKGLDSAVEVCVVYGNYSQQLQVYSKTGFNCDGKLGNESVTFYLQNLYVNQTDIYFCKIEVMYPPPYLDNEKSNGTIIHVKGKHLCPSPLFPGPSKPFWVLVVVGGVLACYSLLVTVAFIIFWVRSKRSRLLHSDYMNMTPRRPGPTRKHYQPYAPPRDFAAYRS

B1: human ICOSIg fusion protein (Fc fusion)
chain: EINGSANYEMFIFHNGGVQILCKYPDIVQQFKMQLLKGGQILCDLTKTKGSGNTVSIKSLKFCHSQLSNNSVSFFLYNLDHSHANYYFCNLSIFDPPPFKVTLTGGYLHIYESQLCCQLKF
notes: Bought from R&D Systems; Ig (Fc) part not given
no binding: all assays above
